We go through 21 molecules from patent publication US20230151068A1.

B1: peptide of SEQ ID NO: 10 (designed binder)
chain: GSPDEYIERAKECCKKQDIQCCLRIFDESGDPNVMLICLFCW
B2: peptide of SEQ ID NO: 11 (designed binder)
chain: GSPDEYIERAKECCKKQDIQCCLRIFDESKDPNVMLICLFCP
B3: A08E variant of SEQ ID NO: 1 (designed binder)
chain: GSPDEYIEREKECCKKGDIQCCLRYFEESGDPNVMLICLFCP
B4: P01H variant of SEQ ID NO: 1 (designed binder)
chain: GSHDEYIERAKECCKKGDIQCCLRYFEESGDPNVMLICLFCP
B5: R07H variant of SEQ ID NO: 1 (designed binder)
chain: GSPDEYIEHAKECCKKGDIQCCLRYFEESGDPNVMLICLFCP
B6: D02K variant of SEQ ID NO: 1 (designed binder)
chain: GSPKEYIERAKECCKKGDIQCCLRYFEESGDPNVMLICLFCP
B7: D02H variant of SEQ ID NO: 1 (designed binder)
chain: GSPHEYIERAKECCKKGDIQCCLRYFEESGDPNVMLICLFCP
B8: A08H variant of SEQ ID NO: 1 (designed binder)
chain: GSPDEYIERHKECCKKGDIQCCLRYFEESGDPNVMLICLFCP
B9: E06H variant of SEQ ID NO: 1 (designed binder)
chain: GSPDEYIHRAKECCKKGDIQCCLRYFEESGDPNVMLICLFCP
B10: E03K variant of SEQ ID NO: 1 (designed binder)
chain: GSPDKYIERAKECCKKGDIQCCLRYFEESGDPNVMLICLFCP
B11: E10H variant of SEQ ID NO: 1 (designed binder)
chain: GSPDEYIERAKHCCKKGDIQCCLRYFEESGDPNVMLICLFCP
B12: E03H variant of SEQ ID NO: 1 (designed binder)
chain: GSPDHYIERAKECCKKGDIQCCLRYFEESGDPNVMLICLFCP
B13: R07E variant of SEQ ID NO: 1 (designed binder)
chain: GSPDEYIEEAKECCKKGDIQCCLRYFEESGDPNVMLICLFCP
B14: Y04H variant of SEQ ID NO: 1 (designed binder)
chain: GSPDEHIERAKECCKKGDIQCCLRYFEESGDPNVMLICLFCP
B15: I05H variant of SEQ ID NO: 1 (designed binder)
chain: GSPDEYHERAKECCKKGDIQCCLRYFEESGDPNVMLICLFCP
B16: K09H variant of SEQ ID NO: 1 (designed binder)
chain: GSPDEYIERAHECCKKGDIQCCLRYFEESGDPNVMLICLFCP
B17: Y04K variant of SEQ ID NO: 1 (designed binder)
chain: GSPDEKIERAKECCKKGDIQCCLRYFEESGDPNVMLICLFCP
B18: P01K variant of SEQ ID NO: 1 (designed binder)
chain: GSKDEYIERAKECCKKGDIQCCLRYFEESGDPNVMLICLFCP
B19: I05E variant of SEQ ID NO: 1 (designed binder)
chain: GSPDEYEERAKECCKKGDIQCCLRYFEESGDPNVMLICLFCP
B20: K09E variant of SEQ ID NO: 1 (designed binder)
chain: GSPDEYIERAEECCKKGDIQCCLRYFEESGDPNVMLICLFCP
B21: peptide of SEQ ID NO: 8 (designed binder)
chain: GSPDEYIERARRCCRRGDIQCCLRYFEESGDPNVMLICLFCP

In the first assay the target is biotinylated His-Avi-TEAD (194-411) (UniProt P28347). Briefly: SPR (Biacore T100, 25 C), captured biotinylated TEAD, peptide as analyte, single cycle kinetics. On the technique in general: SPR reads the build-up and loss of mass on a sensor chip optically.
In general, Kd refers to the constant that tells how readily two partners part at equilibrium. Broadly, the koff is a measure of how fast the partners let go of each other. Low values mean a long-lived complex, high ones a short-lived complex. One may read the kon as the second-order rate constant of association. Lower therefore signals slow association. On to B1, for which the Kd is 0.372 nM, the koff was 0.00767 s⁻¹ and the kon was 2.06e+07 M⁻¹ s⁻¹.

A further assay has the same target. Put plainly: SPR (Biacore T100, 25 C), captured biotinylated TEAD, peptide as analyte, kinetics 1:1 binding.
In the case of B2, the koff was determined as 0.117 s⁻¹ and the association rate constant (kon) is 3.1e+07 M⁻¹ s⁻¹.

For the next assay the target is unchanged. Briefly: SPR, single cycle kinetics, biotinylated TEAD captured on the chip, peptide injected at 0.044, 0.133, 0.4, 1.2, 3.6 nM.
B1 gave a Kd of 0.372 nM.

The target is the same in another assay. Put plainly: SSM screen, enrichment after two rounds of sorting.
Take B3: the enrichment score was -2.66.
B4 came in with an enrichment score of -0.88.
B5 displayed an enrichment score of -0.32.
Take B6: the enrichment score was -1.07.
Turning to B7, the enrichment score is -1.05.
Turning to B8, the enrichment score is -7.27.
B9: the enrichment score was -1.57.
In the case of B10, the enrichment score is -0.5.
As for B11, the enrichment score is -1.97.
With B12, the enrichment score was -0.31.
Molecule B13 had an enrichment score of -0.16.
Take B14: the enrichment score is -1.9.
Still for that read-out and setting: to B15 belongs -2.99; to B16, -1.5; to B17, -1.58.
B18 registered an enrichment score of -0.29.
The same measure, in the same setting: to B19 belongs -1.23; to B20, 3.95.

For the next assay the target is unchanged. Briefly: SPR, steady-state response against peptide concentration (M, log axis) with fitted curve.
As a reminder, the EC50 (read off the curve) is the concentration at which the effect is half-maximal. Higher therefore signals a need for much substance. B21: the EC50 (read off the curve) stood at 40 nM.
Molecule B2 had an EC50 (read off the curve) of 6 nM.

The target is the same in a further assay. Briefly: SPR (Biacore T100, 25 C), captured biotinylated TEAD, peptide as analyte, steady-state.
B21 yielded a Kd of 39 nM.
With B2, the Kd is 6.3 nM.
